# Source: patent US20210388087A1 (Chugai, published 2021)
# Numbering of substitutions follows the chain as printed. Names may count otherwise.
# B1: dBBDu183H P61V / dBBDu072L (antibody, name in Kabat numbering, V domains shown)
# VH: QVQLVESGGGLVQPGRSLRLSCAASGFTFSNAWMHWVRQAPGKGLEWVAQIKDKGNAYAAYYAVSVKGRFTISRDDSKNSIYLQMNSLKTEDTAVYYCHYVHYASASTVLPAFGVDAWGQGTTVTVSS
# VL: DIVMTQSPLSLPVTPGEPASISCQASQELVHMNRNTYLHWYQQKPGQAPRLLIYKVSNRFPGVPDRFSGSGSGTDFTLKISRVEAEDVGVYYCAQGTSVPFTFGQGTKLEIK
# notes: as m1, one VH change
# B2: dBBDu183H A98E / dBBDu072L (antibody, name in Kabat numbering, V domains shown)
# VH: B1 VH with V64P, A104E
# VL: B1 VL
# notes: as m1, one VH change
# B3: dBBDu183H A98S / dBBDu072L (antibody, name in Kabat numbering, V domains shown)
# VH: B1 VH with V64P, A104S
# VL: B1 VL
# notes: as m1, one VH change
# B4: dBBDu183H A100E / dBBDu072L (antibody, name in Kabat numbering, V domains shown)
# VH: B1 VH with V64P, A106E
# VL: B1 VL
# notes: as m1, one VH change
# B5: dBBDu183H A100G / dBBDu072L (antibody, name in Kabat numbering, V domains shown)
# VH: B1 VH with V64P, A106G
# VL: B1 VL
# notes: as m1, one VH change
# B6: dBBDu183H A100K / dBBDu072L (antibody, name in Kabat numbering, V domains shown)
# VH: B1 VH with V64P, A106K
# VL: B1 VL
# notes: as m1, one VH change
# B7: dBBDu183H A100N / dBBDu072L (antibody, name in Kabat numbering, V domains shown)
# VH: B1 VH with V64P, A106N
# VL: B1 VL
# notes: as m1, one VH change
# B8: dBBDu183H A100Q / dBBDu072L (antibody, name in Kabat numbering, V domains shown)
# VH: B1 VH with V64P, A106Q
# VL: B1 VL
# notes: as m1, one VH change
# B9: dBBDu183H A100R / dBBDu072L (antibody, name in Kabat numbering, V domains shown)
# VH: B1 VH with V64P, A106R
# VL: B1 VL
# notes: as m1, one VH change
# B10: dBBDu183H A100fG / dBBDu072L (antibody, name in Kabat numbering, V domains shown)
# VH: B1 VH with V64P, A112G
# VL: B1 VL
# notes: as m1, one VH change
# B11: dBBDu183H A100fH / dBBDu072L (antibody, name in Kabat numbering, V domains shown)
# VH: B1 VH with V64P, A112H
# VL: B1 VL
# notes: as m1, one VH change
# B12: dBBDu183H A100fS / dBBDu072L (antibody, name in Kabat numbering, V domains shown)
# VH: B1 VH with V64P, A112S
# VL: B1 VL
# notes: as m1, one VH change
# B13: dBBDu183H A102G / dBBDu072L (antibody, name in Kabat numbering, V domains shown)
# VH: B1 VH with V64P, A117G
# VL: B1 VL
# notes: as m1, one VH change
# B14: dBBDu183H A102S / dBBDu072L (antibody, name in Kabat numbering, V domains shown)
# VH: B1 VH with V64P, A117S
# VL: B1 VL
# notes: as m1, one VH change
# B15: CE115HA000 Y97P (antibody, human IgG1, kappa, L234A L235A, N297A, name in Kabat numbering)
# heavy: QVQLVESGGGVVQPGRSLRLSCAASGFTFSNAWMHWVRQAPGKGLEWVAQIKAKSNNYATYYAESVKGRFTISRDDSKNSLYLQMNSLKTEDTAVYYCRYVHPGAYYGVDAWGQGTTVTVSSASTKGPSVFPLAPSSKSTSGGTAALGCLVKDYFPEPVTVSWNSGALTSGVHTFPAVLQSSGLYSLSSVVTVPSSSLGTQTYICNVNHKPSNTKVDKKVEPKSCDKTHTCPPCPAPEAAGGPSVFLFPPKPKDTLMISRTPEVTCVVVDVSHEDPEVKFNWYVDGVEVHNAKTKPREEQYASTYRVVSVLTVLHQDWLNGKEYKCKVSNKALPAPIEKTISKAKGQPREPQVYTLPPSRCELTKNQVSLSCAVKGFYPSDIAVEWESNGQPENNYKTTPPVLDSDGSFFLVSKLTVDKSRWQQGNVFSCSVMHEALHNHYTQKSLSLSPDYKDDDDK
# chain: EPKSSDKTHTCPPCPAPELLGGPSVFLFPPKPKDTLMISRTPEVTCVVVDVSHEDPEVKFNWYVDGVEVHNAKTKPREEQYNSTYRVVSVLTVLHQDWLNGKEYKCKVSNKALPAPIEKTISKAKGQPREPQVCTLPPSRDELTKNQVSLWCLVKGFYPSDIAVEWESNGQPENNYKTTPPVLDSDGSFFLYSKLTVDKSRWQQGNVFSCSVMHEALHNRYTQKSLSLSP
# light: DIVMTQSPLSLPVTPGEPASISCRSSQSLVHSNRNTYLHWYQQKPGQAPRLLIYKVSNRFSGVPDRFSGSGSGTDFTLKISRVEAEDVGVYYCGQGTQVPYTFGQGTKLEIKRTVAAPSVFIFPPSDEQLKSGTASVVCLLNNFYPREAKVQWKVDNALQSGNSQESVTEQDSKDSTYSLSSTLTLSKADYEKHKVYACEVTHQGLSSPVTKSFNRGEC
# notes: one-arm antibody
# B16: CE115HA000 Y97R (antibody, human IgG1, kappa, L234A L235A, N297A, name in Kabat numbering)
# heavy: B15 heavy with P103R
# chain: B15 chain
# light: B15 light
# notes: one-arm antibody
# B17: CE115HA000 Y97S (antibody, human IgG1, kappa, L234A L235A, N297A, name in Kabat numbering)
# heavy: B15 heavy with P103S
# chain: B15 chain
# light: B15 light
# notes: one-arm antibody
# B18: CE115HA000 Y100A (antibody)
# heavy: B15 heavy with P103Y, Y106A
# Fc: B15 chain
# light: B15 light
# notes: one-arm antibody
# B19: CE115HA000 Y100D (antibody, human IgG1, kappa, L234A L235A, N297A, name in Kabat numbering)
# heavy: B15 heavy with P103Y, Y106D
# chain: B15 chain
# light: B15 light
# notes: one-arm antibody
# B20: CE115HA000 Y100G (antibody, human IgG1, kappa, L234A L235A, N297A, name in Kabat numbering)
# heavy: B15 heavy with P103Y, Y106G
# chain: B15 chain
# light: B15 light
# notes: one-arm antibody
# B21: CE115HA000 Y100K (antibody, human IgG1, kappa, L234A L235A, N297A, name in Kabat numbering)
# heavy: B15 heavy with P103Y, Y106K
# chain: B15 chain
# light: B15 light
# notes: one-arm antibody
# B22: CE115HA000 Y100L (antibody, human IgG1, kappa, L234A L235A, N297A, name in Kabat numbering)
# heavy: B15 heavy with P103Y, Y106L
# chain: B15 chain
# light: B15 light
# notes: one-arm antibody
# B23: CE115HA000 Y100P (antibody, human IgG1, kappa, L234A L235A, N297A, name in Kabat numbering)
# heavy: B15 heavy with P103Y, Y106P
# chain: B15 chain
# light: B15 light
# notes: one-arm antibody
# B24: CE115HA000 Y100Q (antibody, human IgG1, kappa, L234A L235A, N297A, name in Kabat numbering)
# heavy: B15 heavy with P103Y, Y106Q
# chain: B15 chain
# light: B15 light
# notes: one-arm antibody
# B25: CE115HA000 Y100S (antibody, human IgG1, kappa, L234A L235A, N297A, name in Kabat numbering)
# heavy: B15 heavy with P103Y, Y106S
# chain: B15 chain
# light: B15 light
# notes: one-arm antibody
# B26: CE115HA000 Y100V (antibody, human IgG1, kappa, L234A L235A, N297A, name in Kabat numbering)
# heavy: B15 heavy with P103Y, Y106V
# chain: B15 chain
# light: B15 light
# notes: one-arm antibody
# B27: CE115HA000 Y100W (antibody, human IgG1, kappa, L234A L235A, N297A, name in Kabat numbering)
# heavy: B15 heavy with P103Y, Y106W
# chain: B15 chain
# light: B15 light
# notes: one-arm antibody
# B28: CE115HA000 Y100aA (antibody)
# heavy: B15 heavy with P103Y, Y107A
# Fc: B15 chain
# light: B15 light
# notes: one-arm antibody
# B29: CE115HA000 Y100aD (antibody, human IgG1, kappa, L234A L235A, N297A, name in Kabat numbering)
# heavy: B15 heavy with P103Y, Y107D
# chain: B15 chain
# light: B15 light
# notes: one-arm antibody
# B30: CE115HA000 Y100aF (antibody, human IgG1, kappa, L234A L235A, N297A, name in Kabat numbering)
# heavy: B15 heavy with P103Y, Y107F
# chain: B15 chain
# light: B15 light
# notes: one-arm antibody
# B31: CE115HA000 Y100aG (antibody, human IgG1, kappa, L234A L235A, N297A, name in Kabat numbering)
# heavy: B15 heavy with P103Y, Y107G
# chain: B15 chain
# light: B15 light
# notes: one-arm antibody
# B32: CE115HA000 Y100aK (antibody, human IgG1, kappa, L234A L235A, N297A, name in Kabat numbering)
# heavy: B15 heavy with P103Y, Y107K
# chain: B15 chain
# light: B15 light
# notes: one-arm antibody
# B33: CE115HA000 Y100aL (antibody, human IgG1, kappa, L234A L235A, N297A, name in Kabat numbering)
# heavy: B15 heavy with P103Y, Y107L
# chain: B15 chain
# light: B15 light
# notes: one-arm antibody
# B34: CE115HA000 Y100aQ (antibody, human IgG1, kappa, L234A L235A, N297A, name in Kabat numbering)
# heavy: B15 heavy with P103Y, Y107Q
# chain: B15 chain
# light: B15 light
# notes: one-arm antibody
# B35: CE115HA000 Y100aS (antibody, human IgG1, kappa, L234A L235A, N297A, name in Kabat numbering)
# heavy: B15 heavy with P103Y, Y107S
# chain: B15 chain
# light: B15 light
# notes: one-arm antibody
# Biological target: T1, Human CD137 ECD (human)
# T1 construct: also called 4-1BB
# T1 sequence (chain, as listed by the source limits assumed): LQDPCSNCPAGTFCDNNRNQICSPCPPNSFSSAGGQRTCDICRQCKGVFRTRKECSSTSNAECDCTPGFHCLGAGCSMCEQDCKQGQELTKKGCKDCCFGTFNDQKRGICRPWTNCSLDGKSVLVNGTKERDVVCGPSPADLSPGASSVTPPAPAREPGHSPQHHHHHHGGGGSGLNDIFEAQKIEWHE
# Test: SPR, vs parent H183/L072
row,Binder,fold change of affinity [fold]
1,B1,0.6
2,B2,0.3
3,B3,0.3
4,B4,0.5
5,B5,0.7
6,B6,1.1
7,B7,0.4
8,B8,0.6
9,B9,0.5
10,B10,0.6
11,B11,1
12,B12,0.7
13,B13,1.6
14,B14,0.9

# Biological target: T2, CD3 epsilon homodimer protein (UniProt P07766 23-126)
# T2 construct: also called CD3 (CD3 epsilon)
# T2 sequence (P07766 23-126): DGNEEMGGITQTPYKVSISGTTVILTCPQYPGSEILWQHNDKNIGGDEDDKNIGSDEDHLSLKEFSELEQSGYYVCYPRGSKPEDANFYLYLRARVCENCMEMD
# Test: SPR, CD3 epsilon homodimer on chip, one-arm antibody as analyte;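 note: surface plasmon resonance at 25 °C with CD3 epsilon homodimer amine-coupled to a CM4 sensor chip, antibody injected as analyte, HBS-EP+ as running buffer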
row,Binder,KD ratio (KD of CE115HA000/KD of altered form)
1,B15,12400
2,B16,23200
3,B17,1180
4,B18,0.92
5,B19,0.63
6,B20,0.97
7,B21,0.93
8,B22,0.67
9,B23,1.3
10,B24,0.77
11,B25,0.7
12,B26,0.92
13,B27,0.96
14,B28,0.66
15,B29,1.2
16,B30,0.98
17,B31,1.01
18,B32,0.79
19,B33,0.57
20,B34,0.51
21,B35,0.59
